T1: FcgRIIaR (human, UniProt P12318 34-217)
T1 construct: extracellular domain; also called FcγRIIa R; FcγRIIa type R; not shown: His tag at the C terminus
T1 sequence (looked up): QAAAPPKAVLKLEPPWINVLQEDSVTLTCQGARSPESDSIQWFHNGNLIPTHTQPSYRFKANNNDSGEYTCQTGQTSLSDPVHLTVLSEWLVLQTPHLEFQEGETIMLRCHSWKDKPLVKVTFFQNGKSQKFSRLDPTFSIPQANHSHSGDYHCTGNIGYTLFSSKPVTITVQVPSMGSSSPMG

T2: FcgRIIaH (human, UniProt P12318 34-217)
T2 construct: extracellular domain; also called FcγRIIa H; FcγRIIa type H; not shown: His tag at the C terminus
T2 sequence (looked up): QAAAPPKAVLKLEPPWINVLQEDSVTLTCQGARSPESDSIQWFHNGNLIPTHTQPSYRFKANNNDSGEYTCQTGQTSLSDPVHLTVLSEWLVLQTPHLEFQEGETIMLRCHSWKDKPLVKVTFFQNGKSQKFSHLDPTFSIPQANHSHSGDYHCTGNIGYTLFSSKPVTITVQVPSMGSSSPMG

T3: FcgRIIb (human, UniProt P31994 43-217)
T3 construct: extracellular domain; also called FcγRIIb; 2b; not shown: His tag at the C terminus
T3 sequence (looked up): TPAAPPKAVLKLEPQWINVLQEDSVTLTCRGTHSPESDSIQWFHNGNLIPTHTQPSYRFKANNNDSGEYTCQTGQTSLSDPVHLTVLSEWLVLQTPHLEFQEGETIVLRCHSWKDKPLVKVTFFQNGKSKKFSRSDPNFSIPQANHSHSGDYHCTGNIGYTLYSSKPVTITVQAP

T4: FcγRIIa R (FcγRIIa allotype with Arg at position 131), extracellular domain with C-terminal His tag (human, UniProt P12318 34-217)
T4 chain: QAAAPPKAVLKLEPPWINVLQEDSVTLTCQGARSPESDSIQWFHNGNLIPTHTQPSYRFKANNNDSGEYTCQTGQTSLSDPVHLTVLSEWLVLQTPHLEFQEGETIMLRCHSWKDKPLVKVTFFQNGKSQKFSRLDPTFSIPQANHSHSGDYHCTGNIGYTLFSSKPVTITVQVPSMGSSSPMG

T5: FcγRIIb, extracellular domain with C-terminal His tag (human, UniProt P31994 43-217)
T5 construct: extracellular domain; also called FcgRIIb; 2b; not shown: His tag attached to the C terminus
T5 sequence (looked up): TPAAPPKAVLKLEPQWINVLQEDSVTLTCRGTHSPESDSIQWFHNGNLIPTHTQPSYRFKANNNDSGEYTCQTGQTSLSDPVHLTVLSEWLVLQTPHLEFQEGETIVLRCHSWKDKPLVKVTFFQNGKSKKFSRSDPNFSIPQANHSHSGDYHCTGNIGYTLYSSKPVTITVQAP


Legend:
FcgRIa = target: T6, FcgRIa (human, UniProt P12314 16-292); assay: SPR (Biacore), antibody captured, FcgR extracellular domain as analyte
T6 construct: extracellular domain; also called FcγRIa; FcγRI; not shown: His tag at the C terminus

FcgRIIaR [1] = target: T1, FcgRIIaR; assay: as above
FcgRIIaH [2] = target: T2, FcgRIIaH; assay: as above
FcgRIIb [3] = target: T3, FcgRIIb; assay: as above
FcgRIIIaF [4] = target: T7, FcgRIIIaF (human, UniProt P08637 17-208); assay: as above
T7 construct: extracellular domain; Polymorphic site after J. Clin. Invest; also called FcγRIIIa F; 3aF; not shown: His tag at the C terminus

FcgRIIIaV [5] = target: T8, FcgRIIIaV (human, UniProt P08637 17-208); assay: as above
T8 construct: extracellular domain; Polymorphic site after J. Clin. Invest; also called FcγRIIIa V; 3aV; not shown: His tag at the C terminus

FcgRIIaR [6] = target: T1, FcgRIIaR; assay: SPR (Biacore); KD of H240-Kn033/H240-Hl033/L73-k0 divided by KD of the variant
FcgRIIaH [7] = target: T2, FcgRIIaH; assay: as above
FcgRIIb [8] = target: T3, FcgRIIb; assay: as above
FcgRIIIaF [9] = target: T7, FcgRIIIaF; assay: as above
FcgRIIIaV [10] = target: T8, FcgRIIIaV; assay: as above
[11] = target: T4, FcγRIIa R (FcγRIIa allotype with Arg at …); assay: SPR (Biacore T100); ratio of He/Con for FcγRIIa R to He/Con for FcγRIIb of the same antibody
[12] = target: T5, FcγRIIb, extracellular domain with …; assay: SPR (Biacore T100), antibody captured on antigen peptide chip, FcγR as analyte; binding amount relative to control heterodimerized antibody
Method: (§1) The heterodimerized antibodies He Abs in which one of the H chains was introduced with an alteration were assayed for their binding activities to each activating FcγR and inhibitory FcγR according to the method described in Example 4. […] The activating FcγRs in FIGS. 26, 27, 28, and 29 are FcγRIa, FcγRIIa (R), FcγRIIa (H), and FcγRIIIa, respectively.
(§2) Analysis of interaction between objective antibody and the FcγR was carried out using Biacore T100 (GE Healthcare). HBS-EP+ (GE Healthcare) was used as the running buffer, and the measurement temperature was set to 25° C. Chips produced by immobilizing the antigen peptide by the amine coupling method to a Series S Sencor Chip CM5 (GE Healthcare), or alternatively, chips produced by allowing preliminarily biotinylated antigen peptides to interact with and immobilize onto a Series S Sensor Chip SA (certified) (GE Healthcare) were used. Antibodies of interest were captured onto an antigen peptide-immobilized chip, and allowed to interact to each FcγR diluted with running buffer. To regenerate and repeatedly use the chip, the antibodies captured on the chip were washed off by reacting 10 mM glycine-HCl, pH 1.5.

[13] = target: T4, FcγRIIa R (FcγRIIa allotype with Arg at …); assay: as above
Method: as §1, §2

T8 sequence (P08637 17-208 F176V limits assumed): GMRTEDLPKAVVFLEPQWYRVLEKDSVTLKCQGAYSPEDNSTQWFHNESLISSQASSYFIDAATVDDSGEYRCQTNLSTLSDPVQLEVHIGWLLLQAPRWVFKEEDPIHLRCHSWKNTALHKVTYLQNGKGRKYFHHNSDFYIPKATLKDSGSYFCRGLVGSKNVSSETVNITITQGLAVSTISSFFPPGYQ
T7 sequence (P08637 17-208): as the sequence (P08637 17-208 F176V limits assumed) above, with V160F counted along it
T6 sequence (P12314 16-292): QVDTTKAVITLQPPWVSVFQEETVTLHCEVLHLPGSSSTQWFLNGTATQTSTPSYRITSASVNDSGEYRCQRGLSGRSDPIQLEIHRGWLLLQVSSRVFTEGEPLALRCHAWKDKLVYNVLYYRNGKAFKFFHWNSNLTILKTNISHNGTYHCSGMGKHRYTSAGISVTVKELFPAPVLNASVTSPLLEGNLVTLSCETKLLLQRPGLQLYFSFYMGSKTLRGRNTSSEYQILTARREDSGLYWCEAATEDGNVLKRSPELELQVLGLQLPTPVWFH

Binder | He_2aR/2b (IIaR/IIb) [11] | He/Con_2b (IIb binding) [12] | He/Con_2aR (IIaR binding) [13] | other results
H240-Kn125/H240-Hl218/L73-k0 (antibody, human IgG1, kappa) heavy 1: QDQLVQSGAEVKKPGASVKVSCKASGFNIKDTYIQWVRQAPGQGLEWMGRIDPLRKQTKYREKFEGRVTITADTSTNTAYMELSSLRSEDTAVYYCVRSGREFDYWGQGTLVTVSSASTKGPSVFPLAPSSKSTSGGTAALGCLVKDYFPEPVTVSWNSGALTSGVHTFPAVLQSSGLYSLSSVVTVPSSSLGTQTYICNVNHKPSNTKVDKKVEPKSCDKTHTCPPCPAPEYQWGPMVFLFPPKPKDTLMISRTPEVTCVVVDVSDEEPEVKFNWYVDGVEVHNAKTKPREEQYNATYRVVSVLTVLHQDWLNGKEYKCKVSNKALPAPIEKTISKAKGQPREPQVCTLPPSRDELTKNQVSLWCLVKGFYPSDIAVEWESNGQPENNYKTTPPVLDSDGSFFLYSKLTVDKSRWQQGNVFSCSVMHEALHNHYTQKSLSLSP heavy 2: QDQLVQSGAEVKKPGASVKVSCKASGFNIKDTYIQWVRQAPGQGLEWMGRIDPLRKQTKYREKFEGRVTITADTSTNTAYMELSSLRSEDTAVYYCVRSGREFDYWGQGTLVTVSSASTKGPSVFPLAPSSKSTSGGTAALGCLVKDYFPEPVTVSWNSGALTSGVHTFPAVLQSSGLYSLSSVVTVPSSSLGTQTYICNVNHKPSNTKVDKKVEPKSCDKTHTCPPCPAPELLGGPSVFLFPPKPKDTLMISRTPEVTCVVVDVSHEEPEVKFNWYVDGVEVHNAKTKPREEQYNSTYRVVSVLTVLHQDWLNGKEYKCKVSNDALPHPIEETISKAKGQPREPQVYTLPPSRCELTKNQVSLSCAVKGFYPSDIAVEWESNGQPENNYKTTPPVLDSDGSFFLVSKLTVDKSRWQQGNVFSCSVMHEALHNHYTQKSLSLSP light: DIQMTQSPSSLSASVGDRVTITCRASQDIHKYIAWYQQKPGQAPRLLIQYTSTLQPGVPSRFSGSGSGTDYTFTISSLQPEDIATYYCLQYEQLRTFGGGTKVEIKRTVAAPSVFIFPPSDEQLKSGTASVVCLLNNFYPREAKVQWKVDNALQSGNSQESVTEQDSKDSTYSLSSTLTLSKADYEKHKVYACEVTHQGLSSPVTKSFNRGEC | – | – | – | Kd (FcgRIa): 0.092 nM; Kd (FcgRIIaR [1]): 310 nM; Kd (FcgRIIaH [2]): 110 nM; Kd (FcgRIIb [3]): 2900 nM; Kd (FcgRIIIaF [4]): 2.6 nM; Kd (FcgRIIIaV [5]): 0.68 nM; fold 2aR (FcgRIIaR [6]): 2.4 fold; fold 2aH (FcgRIIaH [7]): 4.7 fold; fold 2b (FcgRIIb [8]): 1.1 fold; fold 3aF (FcgRIIIaF [9]): 112 fold; fold 3aV (FcgRIIIaV [10]): 70.6 fold
GpH7-A5/GpH7-B3 variant L328_13S/GpL16-k0 (heterodimerized antibody He Ab, L328S in one H chain) (antibody, human IgG1, kappa, Anti-glypican-3 human IgG1-type antibody; the alteration is in only one of the two H chains (the GpH7-B3 chain)) heavy 1: not shown heavy 2: not shown light: DIVMTQSPLSLPVTPGEPASISCQASESLVHSNRNTYLHWYLQKPGQSPQLLIYKVSNRFSGVPDRFSGSGSGTDFTLKISRVEAEDVGVYYCSQNTHVPPTFGQGTKVEIERTVAAPSVFIFPPSDEQLKSGTASVVCLLNNFYPREAKVQWKVDNALQSGNSQESVTEQDSKDSTYSLSSTLTLSKADYEKHKVYACEVTHQGLSSPVTKSFNRGEC | 0.78 | 149 relative binding activity, GpH7-A5/GpH7-B3/GpL16-k0 = 100 | 117 relative binding activity, GpH7-A5/GpH7-B3/GpL16-k0 = 100 | –
GpH7-A5/GpH7-B3 variant I332_11K/GpL16-k0 (heterodimerized antibody He Ab, I332K in one H chain) (antibody, human IgG1, kappa, Anti-glypican-3 human IgG1-type antibody; the alteration is in only one of the two H chains (the GpH7-B3 chain)) heavy 1: not shown heavy 2: not shown light: DIVMTQSPLSLPVTPGEPASISCQASESLVHSNRNTYLHWYLQKPGQSPQLLIYKVSNRFSGVPDRFSGSGSGTDFTLKISRVEAEDVGVYYCSQNTHVPPTFGQGTKVEIERTVAAPSVFIFPPSDEQLKSGTASVVCLLNNFYPREAKVQWKVDNALQSGNSQESVTEQDSKDSTYSLSSTLTLSKADYEKHKVYACEVTHQGLSSPVTKSFNRGEC | 0.61 | 70.9 relative binding activity, GpH7-A5/GpH7-B3/GpL16-k0 = 100 | 43.1 relative binding activity, GpH7-A5/GpH7-B3/GpL16-k0 = 100 | –
GpH7-A5/GpH7-B3 variant L328_15Y/GpL16-k0 (heterodimerized antibody He Ab, L328Y in one H chain) (antibody, human IgG1, kappa, Anti-glypican-3 human IgG1-type antibody; the alteration is in only one of the two H chains (the GpH7-B3 chain)) heavy 1: not shown heavy 2: not shown light: DIVMTQSPLSLPVTPGEPASISCQASESLVHSNRNTYLHWYLQKPGQSPQLLIYKVSNRFSGVPDRFSGSGSGTDFTLKISRVEAEDVGVYYCSQNTHVPPTFGQGTKVEIERTVAAPSVFIFPPSDEQLKSGTASVVCLLNNFYPREAKVQWKVDNALQSGNSQESVTEQDSKDSTYSLSSTLTLSKADYEKHKVYACEVTHQGLSSPVTKSFNRGEC | 0.7 | 193 relative binding activity, GpH7-A5/GpH7-B3/GpL16-k0 = 100 | 136 relative binding activity, GpH7-A5/GpH7-B3/GpL16-k0 = 100 | –
GpH7-A5/GpH7-B3 variant L328_18N/GpL16-k0 (heterodimerized antibody He Ab, L328N in one H chain) (antibody, human IgG1, kappa, Anti-glypican-3 human IgG1-type antibody; the alteration is in only one of the two H chains (the GpH7-B3 chain)) heavy 1: not shown heavy 2: not shown light: DIVMTQSPLSLPVTPGEPASISCQASESLVHSNRNTYLHWYLQKPGQSPQLLIYKVSNRFSGVPDRFSGSGSGTDFTLKISRVEAEDVGVYYCSQNTHVPPTFGQGTKVEIERTVAAPSVFIFPPSDEQLKSGTASVVCLLNNFYPREAKVQWKVDNALQSGNSQESVTEQDSKDSTYSLSSTLTLSKADYEKHKVYACEVTHQGLSSPVTKSFNRGEC | 0.73 | 80.8 relative binding activity, GpH7-A5/GpH7-B3/GpL16-k0 = 100 | 59.4 relative binding activity, GpH7-A5/GpH7-B3/GpL16-k0 = 100 | –
GpH7-A5/GpH7-B3 variant L328_20W/GpL16-k0 (heterodimerized antibody He Ab, L328W in one H chain) (antibody, human IgG1, kappa, Anti-glypican-3 human IgG1-type antibody; the alteration is in only one of the two H chains (the GpH7-B3 chain)) heavy 1: not shown heavy 2: not shown light: DIVMTQSPLSLPVTPGEPASISCQASESLVHSNRNTYLHWYLQKPGQSPQLLIYKVSNRFSGVPDRFSGSGSGTDFTLKISRVEAEDVGVYYCSQNTHVPPTFGQGTKVEIERTVAAPSVFIFPPSDEQLKSGTASVVCLLNNFYPREAKVQWKVDNALQSGNSQESVTEQDSKDSTYSLSSTLTLSKADYEKHKVYACEVTHQGLSSPVTKSFNRGEC | 0.66 | 235 relative binding activity, GpH7-A5/GpH7-B3/GpL16-k0 = 100 | 155 relative binding activity, GpH7-A5/GpH7-B3/GpL16-k0 = 100 | –
